# Data: PMC7954794, “Protein context shapes the specificity of SH3 domain-mediated interactions in vivo” (Nature Communications, 2021)
# Assays:
# Abp1 PPIs = assay: DHFR-PCA of Abp1 SH3-swapped baits (Fig. 2B-D, S2C, S2F); assay type: cell-based, Saccharomyces cerevisiae; conditions: number of interactions of Abp1 carrying the named SH3; sheet FigS2A-B
# Text: Having determined that multiple PPIs require SH3s, we asked whether the latter establish PPI specificity independently from their host proteins by swapping domains (Fig. 2A). Using the second round of genome editing, we individually replaced Abp1 SH3 with the 27 yeast SH3s and 3 human Abp1 orthologs’ SH3s (CTTN, HCLS1, and DBNL, Fig. 2B). The reintroduction of its own SH3 (Abp1SH3 in Abp1) reconstitutes almost perfectly Abp1’s interaction profile (Kendall’s τ = 0.93, Fig. 2B). […] No homologous SH3 domain fully re-establishes the normal Abp1 PPI profile (Fig. 2B and Supplementary Fig. 2C). However, we observe a significant correlation (cophenetic correlation = 0.20, p value = 0.005, Fig. 2C) between the similarity of PPI profiles (Fig. 2B) and the sequence similarity of the SH3s. […] Nonetheless, a subset of SH3-dependent PPIs is only observed with the endogenous domain. For instance, Hua2 and App1, both well-characterized partners of Abp1[14],[18],[19], are only detected when Abp1 contains its own SH3 (WT or swapped via editing). A given SH3 may therefore not be fully replaceable with other paralogous or orthologous domains. This pattern is confirmed by cellular growth phenotypic analyses (Supplementary Fig. 2D, E). PPIs, SH3 sequence similarity, and growth profiles under stress conditions are correlated (Supplementary Fig. 2D, E). This relationship is particularly clear when analyzing growth on media supplemented with hygromycin.
# The stuffing of YSC84 SH3 rendered the strain sterile and was therefore not used for this study as the assays require crosses. For genes containing two SH3s (BZZ1 and BEM1), a combination of this first stuffer with a second one ([…]) coding for a highly similar linker ([…]) was used, which allowed targeting each SH3 position independently. The two N-terminal domains of SLA1, which are separated by six nucleotides, were stuffed by a single stuffer. Cells containing pCAS were selected via the G418 resistance cassette from the plasmid on YPD plates (YPD + NAT 100 μg/ml (DHFR F[1,2] selection) + G418 200 µg/mL (Bioshop Canada)). Colonies were randomly selected and grown in YPD media without G418 to allow plasmid loss. The correct insertion of the stuffer was validated by PCR and Sanger sequencing. The SH3-swapped, -shuffled, and -mutated strains were constructed following a second CRISPR–Cas9 editing step with the same procedures. The stuffer sequences were targeted by specific gRNAs (one gRNA per stuffer) and replaced by PCR amplified specific SH3 (with 40 bp homology arms) or libraries of mutated SH3 domains for Deep Mutational Scanning (DMS) with 78 bp flanking homology regions. Validation of the SH3 domain insertions was done as we previously described except for DMS libraries (see below).
# The overall DHFR-PCA pipeline is based on Tarassov et al.[43] and the procedures have also been published as a visualized protocol. The screens were performed with robotically manipulated pin tools (BM5-SC1, S&P Robotics Inc.). First, the preys were cherry-picked from 96-well plates to omnitrays in a 384 format on YPD + HPH solid media. Plates were then combined into the 1536 format on YPD + HPH. The array was constituted of 575 preys previously shown to interact physically with at least one SH3-containing protein as reported in BioGRID V3.4.16 along with 40 negative controls. The prey array comprised a border of control strains of two rows and two columns corresponding to the PPI between LSM8-DHFR F[1,2] and CDC39-DHFR F[3]. This double border was used to remove border effects. Preys are present in duplicate at a randomized position in the 1536 array (except for YAL041W which is present four times per array). Baits were crossed with two prey plates, resulting in four independent bait–prey tests for each PPI. Baits were grown in liquid YPD + NAT and then transferred on solid YPD + NAT omnitrays. They were then replicated on YPD + NAT omnitrays in 1536 array format. […]
# Abp1 (1xFLAG) = assay: Western blot expression level of Abp1 SH3-swapped baits (Fig. S2A-B); assay type: cell-based, Saccharomyces cerevisiae; design: Flag (2 bands): unit not given here; conditions: sheet FigS2A-B; for Ratio Swap/WT Flag: Flag signal relative to Abp1 WT (Abp1-1 to Abp1-4 = 1); for Flag (2 bands): Western blot Flag signal (2 bands), Abp1 WT, SH3-deleted or SH3-swapped
# Method: Precultures of yeast cells expressing baits fused with the DHFR F[1,2]-FLAG were grown overnight at 30 °C with agitation in synthetic complete medium. The next day, cells were expanded in synthetic complete medium to reach their exponential phase (OD600 of around 1.0), pelleted, and frozen at −80 °C. The equivalent of fifty OD600 of cells was resuspended in ice-cold yeast lysis buffer (10 mM Tris-HCl pH 7.4, 150 mM NaCl, 0.5 mM EDTA (Millipore Sigma), 1% Triton X-100 (Millipore Sigma), and one cOmplete Mini Protease Inhibitor Cocktail (Millipore Sigma) per 10 mL) with […] glass beads (Millipore Sigma) and disrupted at 4 °C by 10 cycles of 2 min vortexing and 2 min cooldown. The equivalent of […] of lysed cells was used for the immunoprecipitation of the bait proteins using FLAG-M2 agarose beads (Millipore Sigma). The beads were incubated with the cell lysates for 120 min at 4 °C with a slow rotation, followed by three washes with the yeast lysis buffer.
# Protein extracts and affinity-purified baits from yeast and human lysed cells were migrated on 10% polyacrylamide gels. The separated proteins were then transferred to nitrocellulose membranes. Validation of correct protein loading was done with ponceau staining of the membranes. Before the primary antibody incubations, membranes were blocked in 5% milk. Protein signals were detected on an Amersham Imager 600RGB (GE Healthcare) following the incubation of the membranes with the appropriate HRP-conjugated secondary antibodies and the Clarity Western ECL Substrate (Bio-Rad). The antibodies used in this study are M2-HRP (A8592, Sigma, 1/50,000), rabbit anti-FLAG (F7425, Sigma, 1/1000), PAK (SC-881, Santa Cruz, 1/200), p130cas/BCAR1 (SC-860, Santa Cruz, 1/200), actin (Cell Signaling Technology, 1/2000), anti-mouse HRP (Cell Signaling Technology, 1/10,000) and anti-rabbit HRP (Cell Signaling Technology, 1/10,000). The quantification of the WB signals was performed with the Amersham Imager 600 analysis software (GE Healthcare).
Molecule,Interactions in Abp1 (Abp1 PPIs),Ratio Swap/WT Flag (Abp1 (1xFLAG)),Flag (2 bands) (Abp1 (1xFLAG))
"Abp1-2 (protein, UniProt P15891 2-592, looked up) Actin-binding protein: ALEPIDYTTHSREIDAEYLKIVRGSDPDTTWLIISPNAKKEYEPESTGSSFHDFLQLFDETKVQYGLARVSPPGSDVEKIIIIGWCPDSAPLKTRASFAANFAAVANNLFKGYHVQVTARDEDDLDENELLMKISNAAGARYSIQTSSKQQGKASTPPVKKSFTPSKSPAPVSKKEPVKTPSPAPAAKISSRVNDNNDDDDWNEPELKERDFDQAPLKPNQSSYKPIGKIDLQKVIAEEKAKEDPRLVQKPTAAGSKIDPSSDIANLKNESKLKRDSEFNSFLGTTKPPSMTESSLKNDDDKVIKGFRNEKSPAQLWAERKAKQNSGNAETKAEAPKPEVPEDEPEGEPDVKDLKSKFEGLAASEKEEEEMENKFAPPPKKSEPTIISPKPFSKPQEPVKAEEAEQPKTDYKKIGNPLPGMHIEADNEEEPEENDDDWDDDEDEAAQPPLPSRNVASGAPVQKEEPEQEEIAPSLPSRNSIPAPKQEEAPEQAPEEEIEEEAEEAAPQLPSRSSAAPPPPPRRATPEKKPKENPWATAEYDYDAAEDNELTFVENDKIINIEFVDDDWWLGELEKDGSKGLFPSNYVSLGN",86,1,221127
"Boi2 (protein, UniProt P39969 1-1040, looked up) BEM1-interacting protein 2: MSNDREVPTLSQLNTTVSRDKDVSDTLSPDFDSKGSATGRDGGNFPMYIAINEYFKRMEDELDMKPGDKIKVITDDEEYKDGWYFGRNLRTNEEGLYPVVFTQKITVEKAPTLMRAKSTKRIYSPLTNEDPLLSSTFISENDSNSELPTPQPIETAASISRTANGKIERNLSLKNTMSDIDNALLEFKDDSIGPPDRFINSGRDEEHSITHETILSATDGLDVVESNSKPTTSSSTGFLNGDLENQATLINGIDTTKLNPVEAEFWSPEEITAYFIMEGYDVQSASRFQKHKISGKILLELELVHLKELDINSFGTRFEIFKEIEKIKEAIRTNGRSLNRASKTNNANIYNQLMPPANVDQRASYRGHVRKTSQSLEDLPSQQNFIPTPRNTRNSSASKHRPKSLVFDSQEANANIAPDVQIPQVVEEMAGNENLFVSPRRAPKPPSYPSPAQPPKSPLLNNTRTSPSPAQLYSWQSPTLSFSGPKRTSYIDQYSSSDSNFNSRSALPKNNQGGGKALSPIPSPTRNSVRNEDSEGKLTSSSKRNSVPYYGYAPESSSDRKSSCSSHEEEQFQETMNTFERPTSSIYADGSTIASISNDKLAHEKEGKKKPTRHSSSLSSKSKSDSRRNSSLKRSSSASRTSSFKKSSFMLSPFRQQFTDNAARSSSPEENPITSMPSEKNSSPIVDKKSSKKSRSKRRSVSAKEAEIFTETVKDDKNKRSASEAIKGETLKGKSLRQMTARPVAKKKQTSAFIEGLRSISVKEAMKDADFSGWMSKKGSGAMSTWKTRFFTLHGTRLSYFSSTTDTRERGLIDITAHRVVPAKEDDKLVSLYAASTGKGRYCFKLLPPQPGSKKGLTFTQPRTHYFAVDNKEEMRGWMAALIKTTIDIDTSVPIISSYTTPTVSLSKAQEMLAEAREETKLREQQMLENEEDEDQFLWDQQQLQQQQHDNNQGQADRTISASTQRTSDEDNTISTPNLSSANNTTIGSNGFSSPFLLASGLLSPGVARNSSMRGTEKKGKFSTEEDYFGDNSKHKTDKI",62,0.9819,95048
